# Test results from patent US20240245805A1 (Orna Therapeutics, Inc., priority 2020, published 2024).
# B1: TRV NGS910 (nucleic acid)
# DNA: ATGCGACGTGGTTGGAGATTAAACCGACTCCGACGAAAGTGCTATCATGCCTCCCCGATTATGTGATGTTTTCTGCCCTGCTGGGCGGAGCATTCTCGGGTTGATACACCTTGAATCCTTCATCCTTGGACCTCAGGTCCCCCGGTCTAAGCCGCTTGGAATACGACAGGGTTATTTTCCAATCTTCTCCTTTCTACTTTCATGAGTCCTATTCATGAAAAGGGTCTGTGCTGCCCCTTCCTTCTTGGAGAATCTGCGCGGCGGTCTTTCCGTCTCTCGAAAAGCGCAGATGCAGCATGCTGGAACCGGTGAAGAAAACAGTTCTTTGTGGAAACTTAGAGCAGACATCGAAACAGCTGTAGTGACCTCACAGTAGCAGCGGAACCCCCTCCTGGTAACAGGAGCCTCTGCGGCCAAAAGCCCCGTGGATAAGATCCACTGCTGTGAGCGGTGCAACCCCAGCACCCTGGTTCGATGGTTGTTCTCTGTGGAACCAGAGAATGGTCTTTCTCAAGCCCTCCAGTAGAGAAGCCAAGAATGTCCTGAAGGTACCCCGCATGCGGGATCTGATCAGGAGACCAATCGTCAGTGCTTTACACTGGCGCTTTGGTTTAAAAACTGTCACAGCTTCTCCAAACCAAGTGGTCTTGGTTTTCACTTTTATCAAACTGTTTC
# modifications: lipid formulation; source: /note="Description of Unknown: TRV NGS910 sequence"
# B2: Ia Io (nucleic acid)
# DNA: GGTGTCCGGGTGTGTGGGATAGACCCAGATGTGCAGTGGATGCGAGCATTTGAGTCAGAGTAGGAGCAAGCCCAGGGGCAAAGGGACCACATTGTGTATCCCGAATGAAGGATCGAGATTTCTCTCCTCATTACCCGGTGTCTTGTCACTGTTGGGGGGGCCCAACAGTCTTAGTCCTATACTGCCTGATAGGGTCGCGGCTGGCCGGACTCAAGTGCTATAGTCAGTTGATTTTCACTC
# modifications: source: /note="Description of Unknown: Ia Io sequence"
# B3: Hunnivirus A2 (nucleic acid, listed as Hunnivirus sp.)
# DNA: ACAGTTTTTGACAAGGACCCTCACCTGTCAATCGGGACCACCACTTTCAGTGACCCCGTGCGAAGTGTTGAGAGAAAGTGAGCTTTCTTACCCTTCATTTGTGAACCCTTCAGTCGAAGCCGCTTGGAATAAGATGGAAGGAAATGTTCATTCTAAATGGAGTGAAACATATACTTAATTTCCAGTGTTTAGTGGTCTTTCCACTAGACAACGGCACTGTCTTGCCGGAACTCTACACACCAACATTCCACGCTTGTGGGACTCAAATGTTGGATGACACAGTTGTAGCTGGAACTGAGTGTTTAGTGCACTCTGTGTAACAGTGAAAACAATGTGATCACTTCGGTGGGCTAGTAGCCTGTGGACTAACAACTGGTAACAGTTGCCTCAGGGGCCAAAAGCCACGGTGTTAACAGCACCCTACTAGTTTGATTGGAGCAATCCATGATGTTACAGAGTTAGTAACTGCCAAACAGATTGTACTGGTATCTTGGCATACCGTGCAACTTAGGATAGTGAAGGATGCCCTGGCGGTACCCATAGGTAACAAGTGACACTATGGATCTAAACAGGGGCTCACTCTACGTTGCTTTACAACTAGCTGTGAGTTAAAAAACGTCTAACTATCCACAACCTAGGGGACTAGGTTTTCCTTTTTATTTTTATACACAACTA
# B4: EV A114 (nucleic acid, listed as Enterovirus sp.)
# chain: TGTGCGCCTGTTTTGAAACCCCCTCCCCCAACTCGAAACGTAGAAGTAATGTACACTACTGATCAGTAGCAGGCGTGGCGCACCAGCCATGTCTCGATCAAGCACTTCTGTTTCCCCGGACTGAGTATCAATAGACTGCTCACGCGGTTGAAGGTGAAAACGTCCGTTACCCGGCTAACTACTTCGAGAAACCTAGTAGCACCATAGAAACTGCAGAGTGTTTCGCTCAGCACTTCCCCCGTGTAGATCAGGTCGATGAGTCACTGCAATCCCCACGGGTGACCGTGGCAGTGGCTGCGTTGGCGGCCTGCCTATGGGGCAACCCATAGGACGCTCTAAGGTGGACATGGTGTGAAGAGTCTATTGAGCTAGTTAGTAGTCCTCCGGCCCCTGAATGCGGCTAATCCTAACTGTGGAGCGCATACTCCCAAACCAGGGAGCAGTGCGTCGTAACGGGCAACTCCGCAGCGGAACCGACTACTTTGGGTGTCCGTGTTTCCTTTTATTCCTATACTGGCTGCTTATGGTGACAATTGAGAGATTGTTACCATATAGCTATTGGATTGGCCATCCAGTGTGTAATAGAGCAATCATTTACCAATTTGTTGGATTTACTCCATTAACCCACACGTCTCTCAACACACTACATTTCATCTTACTACTGAACACTAGAAA
# modifications: lipid formulation
# B5: VHEV (nucleic acid)
# DNA: AATTCCTTCTTCCTTTCTCCTTGGACCTCGGTCCCCCGGTCTAAGCCGCTCGGAATATGACAGGGTTATTTTCACCTCTTCTCTCTTCTACTTCATAGTGTTCTATACTATGAAAGGGTATGTGTCGCCCCTTCCTTCTTGGAGAACGTGCGTGGCGGTCTTTCCGTCTCTCGAAAAACGTGCGTGCGACATGCAGAGTAACGCAAAGAAAGCAGTTCTTGGTCTAGCTCTGGTGCCCACAAGAAAACAGCTGTAGCGACCACACAAAGGCAGCGGAAACCCCCTCCTGGTAACAGGAGCCTCTGCGGCCAAAAGCCACGTGGATAAGATCCACCTTTGTGTGCGGTGCAACCCCAGCACCCTGGTTTCTTGGTGACACCTTAGTGAACCCTCGAATGGCAATCTCAAGCGCCTCTGTAGGAAAGCCAAGAATGTCCAGGAGGTACCCCTTCCTCATGGAGGGATCTGACCTGGAGACACATCACACGTGCTATACACTTGTGCTTGTGTTTAAAAATTGTCACAGCTTTCCCAAACCAAGTGGTCTTGGTTTTCCCTTAACTTCGAAAAGTCACTATGGCCTGCAAACATGGATACCCAGACGTGTGCCCT
# modifications: source: /note="Description of Unknown: VHEV sequence"
# B6: Hunnivirus A1 (nucleic acid, listed as Hunnivirus sp.)
# DNA: TAACGTTTGGCAAGAACCCTCACCTGTCAATTGGGACCACCACTTTCAGTGACCCCATGCGAAGTAGTGAGAGAGAATAAGCTTTCTTACCCTTCATTTGTGAACCCTTCAGTCGAAGCCGCTTGGAATAAGATAGGAGGAAAAGTTCATTCTAAATGGAGTGAAACATGTACTTCAGAATTTCTAGCACGCGCTGGGCTTTCTTGCGTGTGACGGCACTGTCTTGCCGGAGCTCTCCACACTGACACCCCACGCTTGTGGACCTTGGTGGCAGATGACAACACTGCAGCTGGAATTGAGTGTCTGGTACACTCTGTGTAACAGTGAAAACAATGTGATCACTTCGGTGAGCTAGTAGCCTGTGGACCAACAACTGGTAACAGTTGCCTCAGGGGCCAAAAGCCACGGTGTTTACAGCACCCTACTGGTTTGATTGGAGCAATCCAAGATGTCACAGAGTTAGTAATTGCCAAGCAGTCCGTACTGGTATCTTGACATACCGTGCAGTTTTGGATAGTGAAGGATGCCCTGACGGTACCCATAGGTAACAAGTGACACTATGGATCTAAGCAGGGGCTCACTCTACGCTGCTTTACAGCTGGCTGTGAGTTAAAAAACGTCTAGCTATCCACAACCTAGGGGACTAGGTTTTCCTTTTATTTAGATTACAATTAT
# B7: Taura Syndrome Virus: "an IRES is an IRES sequence of Taura syndrome virus" (nucleic acid)
# DNA: CTTTAAAAGTCGTGCGTGGCTTCACCACGCACGATCAGTACTATCAGTTAACCACTCTTGAATATGCTCAATGACCCTATTCAACACTGGTGTCTCTTAGTACATTATTTTAGCACTTAACGTGCATGAGTTTTGCCCATTTCTTTCAAAAAAATGAGTATTCGAGGAGACGTCCCGCTCCCCGTCTTATTTCAACCGTAGACTCGACATCTATTGGTGGACATTTAATTCCAGTCGCCGTAAGTTGCTTCTGCCCCGCGCTATATTTTCTTATACTTATGGTTCTATAGGTCTGGTTTAAAACGTAAATAGACGGCCCACAAACTATAGAACGCGTACCCGGAACGCCAATCCCGGATAAGTCCCTGGATATATAGATGCACCGCAATATAAGCCTGCAGACTGTCTCATATACT
# modifications: Taura Syndrome Virus
# B8: GFTV (nucleic acid)
# chain: ATGGGGAAGGGTATGACGTGCCCCTTCCTTCTTCGGAGAACTCGCTCTAGTGGTCTTTCCACTTCTGGAAAAGAGTGAGTGCACGTGATCAGGACCGTCGAAGACGACAAATACCTGGTGCTCTATCTCATAGACGTTTCACAGCTGTAGCGACCCCTCAGTAGCAGCGGAAGCCCCCTCCTGGTGACAGGAGCCTCTGCGGCCAAAAGCCACGTGGATAAGATCCACTGCTGAGGGCGGTGCGACCCTAGCACCCTGTGATGCATACTAGTTGTAGCGTGCCGGACTATTGGTCTGTCATAAGACACCTGATAGAGAGACCAAGAATGTCCTGGAGGTACCCCGCGTGCGGGATCTGACCAGGAGACCATTGCCCAATGCTTTACAACGGGTCTATGGTTTAAAAACTGTCGCAGTCTCTCCAAACCAAGTGGTCTTGGTTTTCAATTACTTTGAATATTTCACT
# modifications: lipid formulation; source: /note="Description of Unknown: GFTV sequence"
# B9: Tottorivirus (nucleic acid, listed as Tottorivirus sp.)
# DNA: CCCCTTTACGTAACTGCAACTTAAAGAGTACCCTACTGCATTGGATGTGTGGTAAACTTTTACGCACACATTTGTAGTAGTGTTAGTTATGTTCTACCTAATGAGTATGCATGCACCCGTCGAAACACGCTTGTGATAAGATAGGTGAGTCCATGTGACTAATCTCATTAAGATAAATAAGCACCCTACAACGCACGGCACGCTCGTGTCTTCCGTGCGGGGCCGGGACAACAGCGGCCTAAATCTTCTAGGTGACCACCATGCTTTTGGGACTATGGCACCACTGTGGACGTGAGTACCTGGCAGTAAGTCTGTGAAAAGATGGAAGGTGTCCCAAGCTATGGGGCGTATGCATATAGCCTGCGGAACAAACAACGGCGACGTTGTCCCCAGGGCCCAAAAGGCACGTGGATAAGATCCACCTATATGTTTACCCCATAGTGTAAGTCACTGGAAGTCCTAGTAATGGATGTCTGGAGTAAGGCTCACGGGGTAGGGCGAAGGATGCCCAGAAGGTACCCGTAGGTAACCTTAAGAGACTATGGATCTGATCTGGGGACCGGATGGCGCCATCACCATGACGTGGAGGCCGGTTTAAAAAACGTCTAAGCCCGACCAACAACCTAGGGGACTAGGTTTTCCTTTTTTATTCATGTATGACGTT
# Test system: HEK293 cells
# Format: cell-based, human
# Conditions: circular RNA encoding Gluc with the listed IRES (UTR truncated to 675 nt) transfected into HEK293 cells; supernatant after 24 hours
row,Molecule,Expression (luminescence from secreted Gluc protein)
1,B1,3.84E+07
2,B2,1.35E+06
3,B3,6.38E+06
4,B4,1.50E+08
5,B5,1.74E+08
6,B6,1.61E+06
7,B7,8.30E+05
8,B8,1.23E+06
9,B9,2.76E+07
